Source: patent US20060270599A1, “Inhibiting angiogenesis using molecules that enhance plasmin formation or prolong plasmin activity” (Crossbeta Biosciences B.V., priority 2000, published 2006)

Key:
[1] = system: mouse C26 colon carcinoma; test: Subcutaneous tumor growth of mouse C26 colon carcinoma; type: in vivo; conditions: BALB/c mice, eleven days after tumor cell inoculation, mean ± standard error of the mean, control 2719±366
Method: FIG. 1: Effect of fibrin degradation products (FDP) on tumor growth. For comparison, treatments with Alteplase® (recombinant tPA) or endostatin is shown. FDP was given continuously using Alzet® pumps (Alza, Palo Alto, Calif., USA, type 2001 or 2002) loaded with 200 μl FDP (5 mg/ml). In addition, every other day, FDP was given subcutaneously at a dose of 7 mg/kg.
A model of subcutaneous tumor growth of a mouse C26 colon carcinoma was used to evaluate the effects of FDP. Eleven days after tumor cell inoculation, tumors of the control group had reached a volume of 2719±366 mm^3. In mice treated with FDP, the mean tumor growth was 719±188 mm^3. […] Treatment with tPA, which generates plasmin, suppressed tumor growth to a similar degree (tumor volume 492±215 mm^3) as FDP.
The mouse colon adenocarcinoma cell line C-26 was maintained as a monolayer culture in Dulbecco's Minimal Essential Medium (DMEM) supplemented with 10% heat-inactivated fetal calf serum, penicillin (100 units/ml), and streptomycin (100 μg/ml) in a 5% CO2 environment. […] The presence of single cell suspension was confirmed by phase contrast microscopy, and cell viability was determined by trypan blue staining. […]
The statistical significance of differences between groups was calculated by applying Student's 2-tailed t-test. […]

[2] = target: tPA-mediated plasmin formation from plasminogen (Homo sapiens, UniProt P00750); test: Measurement of plasmin activity (tPA-mediated plasmin generation, S-2251); type: biochemical; conditions: 50 μg/ml plasminogen, 30 U/ml tPA, 37° C. (FIG. 3)
Method: FIG. 3: Effect on plasmin activity of (A) endostatin, (B) human vitronectin fragment+(a.a. 262-367) (SEQ ID NO:1), (C) FDP, and (D) peptide derived from FDP (a.a. 148-160) (SEQ ID NO: 2).
Effect of FDP, FDP-derived synthetic peptide (a.a. 148-160) (SEQ ID NO:2), fragment (a.a. 262-367) vitronectin (SEQ ID NO:1), and endostatin on plasmin generation. Various concentrations were added.
Reactions were performed at 37° C. in HBS buffer (20 mM Hepes, 4 mM KCl, 137 mM NaCl, 3 mM CaCl2, 0.1% BSA, pH 7.4) containing 50 μg/ml plasminogen with or without the addition of endostatin or FDP. The reactions were started by the addition of tPA at a final concentration of 30 U/ml. At several time points, 20 μl samples were taken and stopped with 20 μl buffer containing 150 mM εACA and 150 mM EDTA. Plasmin activity was determined in 96-well plates after the addition of 20 μl chromogenic substrate S-2251 at a final concentration of 1.6 mM. Increase in absorbance was measured at 405 nm for 10 min.

B1: tPA: Alteplase (recombinant tPA), tissue plasminogen activator (protein, UniProt P00750 36-562, looked up)
Tissue-type plasminogen …: SYQVICRDEKTQMIYQQHQSWLRPVLRSNRVEYCWCNSGRAQCHSVPVKSCSEPRCFNGGTCQQALYFSDFVCQCPEGFAGKCCEIDTRATCYEDQGISYRGTWSTAESGAECTNWNSSALAQKPYSGRRPDAIRLGLGNHNYCRNPDRDSKPWCYVFKAGKYSSEFCSTPACSEGNSDCYFGNGSAYRGTHSLTESGASCLPWNSMILIGKVYTAQNPSAQALGLGKHNYCRNPDGDAKPWCHVLKNRRLTWEYCDVPSCSTCGLRQYSQPQFRIKGGLFADIASHPWQAAIFAKHRRSPGERFLCGGILISSCWILSAAHCFQERFPPHHLTVILGRTYRVVPGEEEQKFEVEKYIVHKEFDDDTYDNDIALLQLKSDSSRCAQESSVVRTVCLPPADLQLPDWTECELSGYGKHEALSPFYSERLKEAHVRLYPSSRCTSQHLLNRTVTDNMLCAGDTRSGGPQANLHDACQGDSGGPLVCLNDGRMTLVGIISWGLGCGQKDVPGVYTKVTNYLDWIRDNMRP
- tumor volume [1]: 492±215 mm^3

B2: endostatin: Recombinant murine endostatin produced by Escherichia coli (protein, UniProt P39061 1591-1774, looked up)
Endostatin: HTHQDFQPVLHLVALNTPLSGGMRGIRGADFQCFQQARAVGLSGTFRAFLSSRLQDLYSIVRRADRGSVPIVNLKDEVLSPSWDSLFSGSQGQLQPGARIFSFDGRDVLRHPAWPQKSVWHGSDPSGRRLMESYCETWRTETTGATGQASSLLSGRLLEQKAASCHNSYIVLCIENSFMTSFSK
modifications: Endostatin
notes: Recombinant murine endostatin produced by Escherichia coli
- tumor volume [1]: 1112±372 mm^3
- stimulation of tPA-mediated plasmin formation [2]: ability to stimulate tPA-mediated plasmin formation
